Laboratory results as given in patent US20250144178A1 (KANAPH THERAPEUTICS, published 2025).

What was measured:
[1] = target: T1, mouse FAP (fibroblast activation protein alpha) overexpressed in B16F10 cells (B16F10-mFAP) (mouse, UniProt P97321 1-761); test: flow cytometry on B16F10-mFAP cells, detection with anti-mouse IgG2a antibody
T1 construct: whole, on cells; also called mouse FAP-expressing cell line
T1 sequence (looked up): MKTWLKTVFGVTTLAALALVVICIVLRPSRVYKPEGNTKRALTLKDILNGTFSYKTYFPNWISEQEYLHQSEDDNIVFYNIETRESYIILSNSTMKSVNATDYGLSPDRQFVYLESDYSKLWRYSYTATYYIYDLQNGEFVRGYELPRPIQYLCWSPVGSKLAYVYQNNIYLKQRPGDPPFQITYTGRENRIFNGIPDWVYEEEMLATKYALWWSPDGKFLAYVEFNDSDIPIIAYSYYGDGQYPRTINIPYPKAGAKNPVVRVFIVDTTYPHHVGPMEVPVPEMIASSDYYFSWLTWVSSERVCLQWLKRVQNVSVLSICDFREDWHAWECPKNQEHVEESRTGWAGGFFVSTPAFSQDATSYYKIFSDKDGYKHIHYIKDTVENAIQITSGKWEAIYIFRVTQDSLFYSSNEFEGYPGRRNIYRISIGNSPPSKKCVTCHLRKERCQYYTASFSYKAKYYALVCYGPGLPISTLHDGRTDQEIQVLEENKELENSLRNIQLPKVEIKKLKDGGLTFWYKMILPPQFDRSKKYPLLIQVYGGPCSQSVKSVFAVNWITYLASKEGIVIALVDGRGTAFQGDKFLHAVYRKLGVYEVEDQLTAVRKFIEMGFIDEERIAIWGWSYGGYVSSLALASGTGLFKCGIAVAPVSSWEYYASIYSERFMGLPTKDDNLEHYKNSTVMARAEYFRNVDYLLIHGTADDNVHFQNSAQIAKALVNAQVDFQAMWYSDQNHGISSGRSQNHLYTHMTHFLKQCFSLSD
Description: (§1) Specifically, the cell line was prepared by suspending in a FACS buffer solution at 1×10⁵ cells/100 μl, and treated with 1 μg of each T1.12m, T1.01m, T1.02m and T1.03m. The cells were washed twice with a FACS buffer solution. The cells were stained with an anti-mouse IgG2a antibody (Biolegend). The negative control was stained only with an anti-mouse IgG2a antibody (Biolegend). The expression rate of the stained cells was measured using BD LSR and analyzed using a FlowJo software.

recombinant mouse FAP = target: T2, recombinant mouse FAP (mouse, UniProt P97321 26-761); test: SPR, fusion protein captured by anti-mouse IgG (Fc) on a CM5 chip, mouse FAP as analyte 1.5625-200 nM, 1:1 binding model
T2 construct: Soluble analyte in SPR
T2 sequence (looked up): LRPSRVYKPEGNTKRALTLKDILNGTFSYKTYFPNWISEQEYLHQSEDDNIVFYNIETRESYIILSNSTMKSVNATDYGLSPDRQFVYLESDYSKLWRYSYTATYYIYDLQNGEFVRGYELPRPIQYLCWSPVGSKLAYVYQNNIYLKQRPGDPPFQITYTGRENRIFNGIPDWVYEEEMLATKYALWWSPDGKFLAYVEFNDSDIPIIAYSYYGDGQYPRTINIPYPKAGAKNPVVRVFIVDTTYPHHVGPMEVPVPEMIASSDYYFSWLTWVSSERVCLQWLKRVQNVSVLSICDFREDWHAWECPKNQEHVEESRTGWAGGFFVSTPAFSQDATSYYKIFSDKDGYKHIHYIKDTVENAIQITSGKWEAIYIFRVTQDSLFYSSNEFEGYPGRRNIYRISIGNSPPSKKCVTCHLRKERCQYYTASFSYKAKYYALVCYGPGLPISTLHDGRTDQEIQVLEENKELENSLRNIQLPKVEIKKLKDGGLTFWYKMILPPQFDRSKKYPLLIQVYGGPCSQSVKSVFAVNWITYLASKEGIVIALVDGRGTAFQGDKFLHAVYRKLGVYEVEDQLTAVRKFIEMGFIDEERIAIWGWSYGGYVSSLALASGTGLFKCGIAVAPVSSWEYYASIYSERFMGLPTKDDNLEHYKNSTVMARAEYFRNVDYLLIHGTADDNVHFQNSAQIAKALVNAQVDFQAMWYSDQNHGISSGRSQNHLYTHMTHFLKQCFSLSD
Description: The surface of the CM5 chip was activated with a 1:1 mixture of […] (N-hydroxysuccinimide) and […] (1-Ethyl-3-(3-dimethylaminopropyl) carbodiimide), and 25 μg/ml of anti-mouse IgG (Fc) antibody was immobilized for 400 seconds at a rate of 10 μl/min. The remaining active ester groups were blocked with 1 M ethanolamine. T1.01m, T1.02m and T1.03m were diluted to 2 μg/ml and reacted on the CM5 chip immobilized with the anti-mouse IgG (Fc) antibody. The recombinant mouse FAP was diluted to 200 nM in 1×HBS-EP+buffer solution and diluted by serial dilution. The diluted recombinant mouse FAP was reacted at a rate of 30 μl/min. The association and dissociation times were 180 seconds and 400 seconds, respectively. After the dissociation, stabilization was performed for 60 seconds, and then a regeneration was performed for 30 seconds with a 10 mM glycine pH 1.5 solution at a rate of 30 μl/min.

[2] = target: T1, mouse FAP (fibroblast activation …); test: flow cytometry on B16F10-mFAP cells, 1 µg protein per 1x10^5 cells, anti-mouse IgG2a detection
Description: as §1

B16F10 = target: T3, B16F10; test: flow cytometry on parental B16F10 cells, detection with anti-mouse IgG2a antibody
T3 construct: not a protein target; also called parental B16F10 cells, without the transduced mouse FAP gene
Description: as §1

percent of cells in the positive gate (mFAP-PE) [1]: 91.6% | Kd (recombinant mouse FAP): 1.25 nM | koff (recombinant mouse FAP): 7.66e-05 s⁻¹ | kon (recombinant mouse FAP): 61200 M⁻¹ s⁻¹ | percent of cells bound [2]: ≥ 99% | percent of cells in the positive gate (mFAP-PE) (B16F10): 0.89%
B1: T1.03m (anti-mu FAP/mu IL-12 mut2, mu IgG2a DANG) (bispecific antibody)
heavy: QVQLQQSGAELARPGASVNLSCKASGYTFTNNGINWLKQRTGQGLEWIGEIYPRSTNTLYNEKFKGKATLTADRSSNTAYMELRSLTSEDSAVYFCARTLTAPFAFWGQGTLVTVSAAKTTAPSVYPLAPVCGDTTGSSVTLGCLVKGYFPEPVTLTWNSGSLSSGVHTFPAVLQSDLYTLSSSVTVTSSTWPSQSITCNVAHPASSTKVDKKIEPRGPTIKPCPPCKCPAPNLLGGPSVFIFPPKIKDVLMISLSPIVTCVVVAVSEDDPDVQISWFVNNVEVHTAQTQTHREDYGSTLRVVSALPIQHQDWMSGKEFKCKVNNKDLPAPIERTISKPKGSVRAPQVYVLPPPEEEMTKKQVTLWCMVTDFMPEDIYVEWTNNGKTELNYKNTEPVLDSDGSYFMYSKLRVEKKNWVERNSYSCSVVHEGLHNHHTTKSFSRTPGK
light: QIVLTQSPAIMSASPGEKVTMTCSASSGVNFMHWYQQKSGTSPKRWIFDTSKLASGVPARFSGSGSGTSYSLTISSMEAEDAATYYCQQWSFNPPTFGGGTKLEIKRADAAPTVSIFPPSSEQLTSGGASVVCFLNNFYPKDINVKWKIDGSERQNGVLNSWTDQDSKDSTYSMSSTLTLTKDEYERHNSYTCEATHKTSTSPIVKSFNRNEC
chain: MWELEKDVYVVEVDWTPDAPGETVNLTCDTPEEDDITWTSDQRHGVIGSGKTLTITVKEFLDAGQYTCHKGGETLSHSHLLLHKKENGIWSTEILKNFKNKTFLKCEAPNYSGRFTCSWLVQRNMDLKFNIKSSSSSPDSRAVTCGMASLSAEKVTLDQRDYEKYSVSCQEDVTCPTAEETLPIELALEARQQNKYENYSTSFFIRDIIKPDPPKNLQMKPLKNSQVEVSWEYPDSWSTPHSYFSLKFFVRIQAAAEKMAETEEGCNQKGAFLVEKTSTEVQCKGGNVCVQAQDRYYNSSCSKWACVPCRVRSGGGGSGGGGSGGGGSRVIPVSGPARCLSQSRNLLKTTDDMVKTAREKLKHYSCTAEDIDHEDITRDQTSTLKTCLPLELHKNESCLATRETSSTTRGSCLPPQKTSLMMTLCLGSIYEDLKMYQTEFQAINAALQNHNHQQIILDKGMLVAIDELMQSLNHNGETLRQKPPVGEADPYRVKMKLCILLHAFSTRVVTINRVMGYLSSAGGGGSGGGGSEPRGPTIKPCPPCKCPAPNLLGGPSVFIFPPKIKDVLMISLSPIVTCVVVAVSEDDPDVQISWFVNNVEVHTAQTQTHREDYGSTLRVVSALPIQHQDWMSGKEFKCKVNNKDLPAPIERTISKPKGSVRAPQVYVLPPPEEEMTKKQVTLSCAVTDFMPEDIYVEWTNNGKTELNYKNTEPVLDSDGSYFMVSKLRVEKKNWVERNSYSCSVVHEGLHNHHTTKSFSRTPGK
notes: Mouse surrogate, knob-in-hole heterodimer
